What was measured:
Bmh1 = Bmh1 (UniProt P29311); experiment: anti-FLAG co-IP, anti-V5 blot; details: reference: wild type
[1] = biological target: full-length 3xFLAG-tagged Nth1^S83A (S. cerevisiae) (UniProt P32356); experiment: co-IP; Nth1-3xFLAG precipitated with anti-FLAG M2 magnetic beads, Bmh1-V5 detected by blot; stationary phase cells recovered by dilution in 1% glucose minimal medium (5 min after glucose replenishment); 25 mM Tris-HCl pH 7.5, 150 mM NaCl, 5 mM CaCl2, 0.1% Triton X-100, 4 °C, 1 h
[2] = biological target: T1, recombinant full-length 6xHis-tagged Nth1 phosphorylated in vitro with PKA (S. cerevisiae, UniProt P32356 1-751, fully phosphorylated with 3 nM PKA in vitro); experiment: phosphatase shielding assay (Phos-tag autoradiograph and mass spectrometry); 1 µM 6xHis-Nth1 phosphorylated with 3 nM PKA in presence or absence of Bmh1 (5:1, Bmh1:Nth1); at 30 min PKA inhibitor and lambda phosphatase (90 U/µl, 1 mM MnCl2) added; details: both partners purified
T1 construct: neutral trehalase Nth1, S. cerevisiae, full length, expressed from pET28a; also called 6xHis-Nth1
T1 sequence (looked up): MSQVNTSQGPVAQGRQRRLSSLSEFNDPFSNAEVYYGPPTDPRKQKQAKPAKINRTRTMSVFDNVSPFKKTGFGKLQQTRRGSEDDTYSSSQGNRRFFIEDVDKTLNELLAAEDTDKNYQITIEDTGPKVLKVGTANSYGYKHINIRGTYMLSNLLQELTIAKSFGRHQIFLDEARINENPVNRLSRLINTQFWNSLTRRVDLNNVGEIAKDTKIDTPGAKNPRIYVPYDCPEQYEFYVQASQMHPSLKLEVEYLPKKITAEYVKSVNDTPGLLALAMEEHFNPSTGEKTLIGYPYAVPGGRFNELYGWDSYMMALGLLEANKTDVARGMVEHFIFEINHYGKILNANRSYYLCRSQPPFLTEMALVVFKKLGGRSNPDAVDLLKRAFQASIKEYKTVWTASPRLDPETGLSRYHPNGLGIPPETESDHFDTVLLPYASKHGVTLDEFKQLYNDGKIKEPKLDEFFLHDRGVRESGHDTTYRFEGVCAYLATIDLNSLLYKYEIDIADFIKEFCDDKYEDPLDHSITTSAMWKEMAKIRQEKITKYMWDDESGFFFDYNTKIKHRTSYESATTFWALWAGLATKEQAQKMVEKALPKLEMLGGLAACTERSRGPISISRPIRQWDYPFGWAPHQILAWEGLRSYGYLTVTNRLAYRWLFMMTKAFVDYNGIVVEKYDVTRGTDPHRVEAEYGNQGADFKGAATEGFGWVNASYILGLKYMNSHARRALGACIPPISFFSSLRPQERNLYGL

[3] = biological target: T2, Nth1-Strep phosphorylated in vitro with PKA and CyclinB-Cdk1 (S. cerevisiae, UniProt P32356 1-751, full phosphorylation by Cdk1 (site S66) and partial phosphorylation of the PKA sites by PKA (15 nM or 1.5 nM) in vitro); experiment: pull-down; called co-IP by the paper; 6xHis-Bmh1 from BL21RP lysate loaded on Chelating Sepharose and washed, mixed 10 min with in vitro phosphorylated Nth1-Strep (200 ng per sample); washed with 25 mM Tris-HCl pH 7.4, 150 mM NaCl, 5 mM CaCl2; bound Nth1-Strep detected by blot (StrepMAB-Classic); details: both partners purified
T2 construct: neutral trehalase Nth1, S. cerevisiae, full length, expressed from pASK-Iba3; also called Nth1-Strep-tagged; source: E. coli BL21(DE3)RP, purified (Strep-Tactin II Superflow), phosphorylated in vitro with PKA and cyclin B-Cdk1
T2 sequence (looked up): T1 sequence (looked up)

Work on Nth1 (from UniProt P32356) S60A yielded a percent of reference (Bmh1; sites S60) of 30%.

In the case of Nth1 (from UniProt P32356) S66A, the percent of reference (Bmh1; sites S66) is reported as 50%.

Work on Nth1 (from UniProt P32356) S83A yielded a percent of reference (Bmh1; sites S83) of under 10%.

Molecule “V5-tagged Bmh1 (from UniProt P29311 1-267) (natural protein)” has a bound Bmh1, percent normalised to WT [1] of under 10%.

B1: recombinant full-length 6xHis-tagged Bmh1 (natural protein, S. cerevisiae, UniProt P29311 1-267, looked up)
chain: MSTSREDSVYLAKLAEQAERYEEMVENMKTVASSGQELSVEERNLLSVAYKNVIGARRASWRIVSSIEQKEESKEKSEHQVELICSYRSKIETELTKISDDILSVLDSHLIPSATTGESKVFYYKMKGDYHRYLAEFSSGDAREKATNASLEAYKTASEIATTELPPTHPIRLGLALNFSVFYYEIQNSPDKACHLAKQAFDDAIAELDTLSEESYKDSTLIMQLLRDNLTLWTSDMSESGQAEDQQQQQQHQQQQPPAAAEGEAPK
notes: 14-3-3 protein Bmh1, S. cerevisiae, full length, expressed from pET28a; also called 6xHis-Bmh1; Bhm1; source: E. coli BL21(DE3)RP
B1: binds [2]; binds [3].

Source: publication PMC7806596, “Regulation of trehalase activity by multi-site phosphorylation and 14-3-3 interaction” (Scientific Reports, 2021)
